{"source": "paper PMC3720600", "origin": "cited, not measured here", "molecular_target": "Cys145 (UniProt position 145, PILIPCHRVVC)"}
{"substance": "O6-methylguanine-DNA methyltransferase (MGMT; O6-alkylguanine-DNA alkyltransferase, AGT) (Homo sapiens)", "values": [{"measurement": "pKa", "result": 4.8}]}
